The values below come from paper PMC6108569.

The experiment concerns the target OphAΔC18. The experiment can be described thus: crystal structure; proteins from the dimer fractions of gel filtration chromatography, incubated with SAM, SAH or sinefungin before crystallization; hanging drop vapor diffusion unless otherwise specified; homodimer in the crystal.

Consider OphAΔC18 (enzyme), for which the stoichiometry N (commonly a count of units in the complex or per binding partner) stood at 2.
